The values below come from patent US20170158767A1 (published 2017).

The target of assay [1] is T1, human PD-L1 expressed at the cell surface (human, UniProt Q9NZQ7 19-290).
T1 construct: whole, on cells; also called cell surface PD-L1; full-length human PD-L1 on transfected CHO cells
In words: flow cytometry on CHO cells transfected with human PD-L1 (FIG. 32B). As for the experimental part:
(§1) Chinese hamster ovary (CHO) cell lines that express recombinant human PD-L1 at the cell surface were developed and used to determine the specificity of PD-L1 human monoclonal antibodies by flow cytometry. CHO cells were transfected with expression plasmids containing full length cDNA encoding transmembrane forms of PD-L1. […] The cells were washed and binding was detected with a FITC-labeled anti-human IgG Ab. Flow cytometric analyses were performed using a FACScan flow cytometry (Becton Dickinson, San Jose, Calif.). The binding was compared to the parent CHO cell line. […] Binding was also tested using varying concentrations of an anti-PD-L1 antibody.
A general note: In flow cytometry, cells or beads pass a laser one at a time.

Assay [2] concerns the target T1, human PD-L1 expressed at the cell …. The assay can be described thus: flow cytometry, serial dilutions on anti-CD3-activated human T cells. As for the experimental part:
Human or monkey T cells were activated by anti-CD3 antibody to induce PD-L1 expression prior to binding with a human anti-PD-L1 monoclonal antibody. […] An isotype control antibody was used as a negative control. The cells were washed and binding was detected with a FITC-labeled anti-human Ig-kappa light chain Ab. Flow cytometric analyses were performed using a FACScalibur flow cytometer (Becton Dickinson, San Jose, Calif.).

Assay [3] shares this target. The assay can be described thus: flow cytometry on CHO cells transfected with human PD-L1 (FIG. 32A). As for the experimental part: as §1

T1 sequence (Q9NZQ7 19-290): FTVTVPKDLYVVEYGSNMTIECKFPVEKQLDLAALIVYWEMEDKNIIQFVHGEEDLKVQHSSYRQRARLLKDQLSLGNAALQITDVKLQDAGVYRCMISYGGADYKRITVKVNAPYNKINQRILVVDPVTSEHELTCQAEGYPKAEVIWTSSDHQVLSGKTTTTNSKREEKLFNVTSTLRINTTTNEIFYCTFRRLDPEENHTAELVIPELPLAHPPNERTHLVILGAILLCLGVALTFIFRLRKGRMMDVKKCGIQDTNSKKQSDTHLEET

B1: 10A5 human monoclonal antibody (antibody, V domains shown)
VH: QVQLVQSGAEVKKPGASVKVSCKASGYTFTSYDVHWVRQAPGQRLEWMGWLHADTGITKFSQKFQGRVTITRDTSASTAYMELSSLRSEDTAVYYCARERIQLWFDYWGQGTLVTVSS
VL: DIQMTQSPSSLSASVGDRVTITCRASQGISSWLAWYQQKPEKAPKSLIYAASSLQSGVPSRFSGSGSGTDFTLTISSLQPEDFATYYCQQYNSYPYTFGQGTKLEIK
notes: Fully human IgG kappa from a KM mouse hybridoma; also called HuMAb 10A5
For the molecule B1, the binding result in assay [1] is listed as “binds”.

B2: 1B12 human monoclonal antibody (antibody, V domains shown)
VH: QVQLVQSGAEVKKPGSSVKVSCKTSGDTFSSYAISWVRQAPGQGLEWMGGIIPIFGRAHYAQKFQGRVTITADESTSTAYMELSSLRSEDTAVYFCARKFHFVSGSPFGMDVWGQGTTVTVSS
VL: not shown
notes: Fully human IgG kappa from a KM mouse hybridoma
Take B2: the binding result in assay [2] is reported as “binds”.

B3: 3G10 human monoclonal antibody (antibody, V domains shown)
VH: QVQLVQSGAEVKKPGASVKVSCKASGYTFTDYGFSWVRQAPGQGLEWMGWITAYNGNTNYAQKLQGRVTMTTDTSTSTVYMELRSLRSDDTAVYYCARDYFYGMDVWGQGTTVTVSS
VL: EIVLTQSPATLSLSPGERATLSCRASQSVSSYLVWYQQKPGQAPRLLIYDASNRATGIPARFSGSGSGTDFTLTISSLEPEDFAVYYCQQRSNWPRTFGQGTKVEIK
notes: Fully human IgG kappa from a KM mouse hybridoma; also called HuMAb 3G10
Regarding B3, in assay [3], the binding result was “binds”.
